The source of these data is patent US20230029835A1 (KEYMED BIOSCIENCES, published 2023).

For assay [1], the target named is T1, human TSLP recombinant protein (human, UniProt Q969D9 29-159, biotinylated in the blocking and cell-binding assays (sites not given)).
T1 construct: also called biotinylated human TSLP protein
As to the kind of experiment: ELISA on coated human TSLP.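 Note: binding detected by TMB colour development for 10 min at 37 °C, then absorbance measured at 450 nm.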 Background: In an ELISA, binding on a coated surface is turned into a signal by an enzyme label.

Assay [2] concerns the target T2, Cynomolgus macaques TSLP recombinant protein (Cynomolgus macaques, UniProt Q969D9 29-159 (human entry), limits assumed, biotinylated in the blocking assays (sites not given)).
T2 construct: also called cyTSLP; biotinylated Cynomolgus macaques TSLP protein
T2 chain: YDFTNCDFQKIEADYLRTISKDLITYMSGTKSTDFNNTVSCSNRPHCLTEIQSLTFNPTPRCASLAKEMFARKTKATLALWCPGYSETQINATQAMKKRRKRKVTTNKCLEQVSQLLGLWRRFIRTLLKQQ
As to the kind of experiment: ELISA on coated cynomolgus TSLP.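 Note: Read-out was TMB colorimetric signal measured as absorbance at 450 nm after 10 min development at 37 °C.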

The target of assay [3] is T1, human TSLP recombinant protein. As to the kind of experiment: competition ELISA, biotin-human TSLP to coated human TSLPR-Fc.
Experimental: Human TSLPR recombinant protein was coated onto a 96-well microtiter plate at 1 μg/mL in carbonate buffer overnight at 4° C. The plate was washed three times with PBS and blocked by adding 200 μL/well of PBS containing 2% skim milk for 1 hour. […] The 96-well plate was washed three times with PBS, and 100 μL of the incubated mixture was added to each well and incubated for 1 hour at room temperature. After washing with PBST and PBS three times, respectively, 100 μL of SA-HRP was added to each well and incubated at room temperature for 30 minutes in the dark. After washing with PBST and PBS three times, respectively, 100 μL of TMB substrate was added to well for color development at 37° C. for 10 minutes, the reaction was terminated with 50 μL of 2M sulfuric acid solution per well, and the absorbance was read at a wavelength of 450 nm.
For assay [4], the target named is T2, Cynomolgus macaques TSLP recombinant …. Briefly: competition ELISA, biotin-cynomolgus TSLP to coated cynomolgus TSLPR-Fc.
Experimental: Cynomolgus macaques TSLPR recombinant protein was coated onto a 96-well microtiter plate at 1 g/mL in carbonate buffer overnight at 4° C. The plate was washed three times with PBS and blocked by adding 200 μL/well of PBS containing 2% skim milk for 1 hour. […] The 96-well plate was washed three times with PBS, and 100 μL of the incubated mixture was added to each well and incubated for 1 hour at room temperature. After washing with PBST and PBS three times, respectively, 100 μL of SA-HRP was added to each well and incubated at room temperature for 30 minutes in the dark. After washing with PBST and PBS three times, respectively, 100 μL of TMB substrate was added to well for color development at 37° C. for 10 minutes, the reaction was terminated with 50 μL of 2M sulfuric acid solution per well, and the absorbance was read at a wavelength of 450 nm.
In assay [5] the target is T1, human TSLP recombinant protein. As to the kind of experiment: flow cytometry competition, biotin-human TSLP to Ba/F3-hTSLPR-IL7Rα cells.
Experimental: Ba/F3-hTSLPR-IL7Rα cells were washed three times with PBS, centrifuged at 300 g for 3 minutes, and blocked with 3% BSA/PBS for 30 minutes. The cells were resuspended and added to a 96-well U-plate at 5×10⁴/well.
For assay [6] the target is unchanged. As to the kind of experiment: cell-based or functional assay.

B1: Ab1 (antibody, V domains shown)
VH: QVQLVQSGAEVKKPGSSVKVSCKASGYSFISYWIHWVRQAPGQGLEWMGIIDPSDSDTSLNQKFQGRVTLTVDKSSTTAYMELSSLRSEDTAVYYCARSLDGYYDYWGQGTLVTVSS
VL: DIQMTQSPSSLSASVGDRVTITCRASENIYSYLAWYQQKPGKAPKLLIYNARTLPEGVPSRFSGSGSGTDFTLTISSLQPEDFATYYCQHHYTTPWTFGQGTKVEIK
notes: Humanized; also called h39G5VHv1/h39G5VKv1
One may read the EC50 as the concentration at which the effect is half-maximal. A word on the IC50: it is the concentration that inhibits the measured activity by half. As for B1, the EC50 worked out at 0.19 nM in assay [1] and 2.29 nM in assay [2]. The IC50 in assay [3] came to 1.7 nM; in assay [4], 1.78 nM.

B2: Ab19 (antibody, V domains shown)
VH: QVQLVQSGAEVKKPGSSVKVSCKASGYTFTDYWMHWVRQAPGQGLEWMGTIDNSDSDTTYNPSFQGHVTISADKSISTAYLQWSSLKASDTAMYYCARSVDGYLDYWGQGTLVTVSS
VL: DIQMTQSPSSLSASVGDRVTITCRTSENIYSYLAWYQQKPGKAPKLLIYFAKTLTDGVPSRFSGSGSGTDFTLTISSLQPEDFATYYCQHHYGTPWTFGQGTKVEIK
notes: Humanized; also called h71G4VHv1/h71G4VKv1
In the case of B2, the EC50 in assay [1] turned out to be 0.27 nM; in assay [2], 0.65 nM. Moreover, the IC50 in assay [3] came to 2.74 nM; in assay [4], 1.76 nM; in assay [5] it was 0.45 nM.

B3: Ab5 (antibody, V domains shown)
VH: QVQLVQSGAEVKKPGSSVKVSCKASGYTFTDYWMHWVRQAPGQGLEWMGIIDPSDSDTSLNQKFQGRVTLTVDTSTSTAYMELSSLRSEDTAVYYCARSLDGYYDYWGQGTLVTVSS
VL: DIQMTQSPSSLSASVGDRVTITCRASENIYSYLAWYQQKPGKAPKLLIYNARTLPEGVPSRFSGSGSGTDFTLTISSLQPEDFATYYCQHHYTTPWTFGQGTKVEIK
notes: Humanized; also called h39G5VHv5/h39G5VKv1
In the case of B3, the EC50 in assay [1] turned out to be 0.26 nM; in assay [2], 2.85 nM. Moreover, the figures for the IC50 in assay [3] and in assay [4] were 1.69 nM and 0.28 nM, respectively.

B4: Ab3 (antibody, V domains shown)
VH: EVQLVQSGAEVKKPGESLRISCKASGYSFISYWIHWVRQMPGKGLEWMGIIDPSDSDTSLNQSFQGHVTLSVDKSSTTAYLQWSSLKASDTAMYYCARSLDGYYDYWGQGTLVTVSS
VL: DIQMTQSPSSLSASVGDRVTITCRASENIYSYLAWYQQKPGKAPKLLIYNARTLPEGVPSRFSGSGSGTDFTLTISSLQPEDFATYYCQHHYTTPWTFGQGTKVEIK
notes: Humanized; also called h39G5VHv3/h39G5VKv1
For the molecule B4, the values for the EC50 in assay [1] and in assay [2] were 0.22 nM and 2.22 nM, respectively. For the same molecule, the results for the IC50 in assay [3] and in assay [4] were 1.65 nM and 0.62 nM, respectively.

B5: Ab20 (antibody, V domains shown)
VH: QVQLVQSGAEVKKPGSSVKVSCKASGYTFTDYWMHWVRQAPGQGLEWMGTIDNSDSDTTYNQKFQGRVTLTVDTSTSTAYMELSSLRSEDTAVYYCARSVDGYLDYWGQGTLVTVSS
VL: DIQMTQSPSSLSASVGDRVTITCRTSENIYSYLAWYQQKPGKAPKLLIYFAKTLTDGVPSRFSGSGSGTDFTLTISSLQPEDFATYYCQHHYGTPWTFGQGTKVEIK
notes: Humanized; also called h71G4VHv2/h71G4VKv1
As for B5, the “Inhibition of Cell Proliferation IC50” value in assay [6] amounted to 46.2 nM. The EC50 in assay [1] was 0.17 nM; in assay [2] it was 0.27 nM. Besides, the IC50 in assay [3] amounted to 2 nM; in assay [4] it was 1.32 nM; in assay [5] it was 0.33 nM.

B6: Ab25 (antibody, V domains shown)
VH: QVQLVQSGAEVKKPGSSVKVSCKASGYTFTDYWMHWVRQAPGQGLEWMGTIDNSDSDTSLNQKFQGRVTLTVDTSTSTAYMELSSLRSEDTAVYYCARSLDGYYDYWGQGTLVTVSS
VL: DIQMTQSPSSLSASVGDRVTITCRTSENIYSYLAWYQQKPGKAPKLLIYFAKTLTDGVPSRFSGSGSGTDFTLTISSLQPEDFATYYCQHHYGTPWTFGQGTKVEIK
notes: Humanized; also called h39G5VHv6/h71G4VKv1
As to B6, the figures for the EC50 in assay [1] and in assay [2] were 0.27 nM and 1.16 nM, respectively. Moreover, the IC50 came to 1.82 nM in assay [3], 0.85 nM in assay [4] and 0.35 nM in assay [5].

B7: Ab13 (antibody, V domains shown)
VH: EVQLVQSGAEVKKPGESLKISCKASGYTFTDYWMHWVRQMPGKGLEWMGIIDPSDSDTSLNQSFQGHVTISADKSISTAYLQWSSLKASDTAMYYCARSLDGYYDYWGQGTLVTVSS
VL: DIQMTQSPSSLSASVGDRVTITCRASENIYSYLAWYQQKPGKAPKLLIYNARTLPEGVPSRFSGSGSGTDFTLTISSLQPEDFATYYCQHHYTTPWTFGQGTKVEIK
notes: Humanized; also called h39G5VHv13/h39G5VKv1
On to B7, for which the half-maximal effective concentration (EC50) in assay [1] came out at 0.66 nM; in assay [2], 5.68 nM. In addition, the IC50 in assay [3] was determined as 1.1 nM; in assay [4] it was 0.55 nM.

B8: Ab16 (antibody, V domains shown)
VH: QVQLVQSGAEVKKPGSSVKVSCKASGYTFTDYWMHWVRQAPGQGLEWMGTIDNSDSDTTYNPSFQGHVTISADKSISTAYLQWSSLKASDTAMYYCARSVDGYLDYWGQGTLVTVSS
VL: DIQMTQSPSSLSASVGDRVTITCRASENIYSYLAWYQQKPGKAPKLLIYNARTLPEGVPSRFSGSGSGTDFTLTISSLQPEDFATYYCQHHYTTPWTFGQGTKVEIK
notes: Humanized; also called h71G4VHv1/h39G5VKv1
With B8, the EC50 in assay [1] was found to be 5.87 nM; in assay [2] it was 12.6 nM.

B9: Ab4 (antibody, V domains shown)
VH: EVQLVQSGAEVKKPGESLRISCKASGYSFISYWIHWVRQMPGKGLEWMGIIDPSDSDTSLNQSFQGHVTISADKSISTAYLQWSSLKASDTAMYYCARSLDGYYDYWGQGTLVTVSS
VL: DIQMTQSPSSLSASVGDRVTITCRASENIYSYLAWYQQKPGKAPKLLIYNARTLPEGVPSRFSGSGSGTDFTLTISSLQPEDFATYYCQHHYTTPWTFGQGTKVEIK
notes: Humanized; also called h39G5VHv4/h39G5VKv1
For B9, the EC50 amounted to 0.39 nM in assay [1] and 5.54 nM in assay [2]. The IC50 in assay [3] was 1.69 nM; in assay [4] it was 0.43 nM.

B10: Ab2 (antibody, V domains shown)
VH: QVQLVQSGAEVKKPGSSVKVSCKASGYSFISYWIHWVRQAPGQGLEWMGIIDPSDSDTSLNQKFQGRVTITADESTSTAYMELSSLRSEDTAVYYCARSLDGYYDYWGQGTLVTVSS
VL: DIQMTQSPSSLSASVGDRVTITCRASENIYSYLAWYQQKPGKAPKLLIYNARTLPEGVPSRFSGSGSGTDFTLTISSLQPEDFATYYCQHHYTTPWTFGQGTKVEIK
notes: Humanized; also called h39G5VHv2/h39G5VKv1
Regarding B10, the EC50 turned out to be 0.21 nM in assay [1] and 2.53 nM in assay [2]. Further, the IC50 in assay [3] came out at 1.49 nM; in assay [4] it was 1.1 nM.

B11: Ab10 (antibody, V domains shown)
VH: QVQLVQSGAEVKKPGSSVKVSCKASGYTFTDYWMHWVRQAPGQGLEWMGIIDPSDSDTSLNQKFQGRVTITADTSTSTAYMELSSLRSEDTAVYYCARSLDGYYDYWGQGTLVTVSS
VL: DIQMTQSPSSLSASVGDRVTITCRASENIYSYLAWYQQKPGKAPKLLIYNARTLPEGVPSRFSGSGSGTDFTLTISSLQPEDFATYYCQHHYTTPWTFGQGTKVEIK
notes: Humanized; also called h39G5VHv10/h39G5VKv1
With B11, the EC50 was determined as 0.32 nM in assay [1] and 2.24 nM in assay [2]. Further, the IC50 in assay [3] worked out at 1.36 nM; in assay [4], 0.37 nM.

B12: Ab8 (antibody, V domains shown)
VH: EVQLVQSGAEVKKPGESLKISCKASGYTFTDYWMHWVRQMPGKGLEWMGIIDPSDSDTSLNQSFQGHVTLSVDKSSTTAYLQWSSLKASDTAMYYCARSLDGYYDYWGQGTLVTVSS
VL: DIQMTQSPSSLSASVGDRVTITCRASENIYSYLAWYQQKPGKAPKLLIYNARTLPEGVPSRFSGSGSGTDFTLTISSLQPEDFATYYCQHHYTTPWTFGQGTKVEIK
notes: Humanized; also called h39G5VHv8/h39G5VKv1
In the case of B12, the EC50 in assay [1] was found to be 0.4 nM; in assay [2] it was 5.51 nM. For the same molecule, the figures for the IC50 in assay [3] and in assay [4] were 2.05 nM and 1 nM, respectively.
